The data set deals with the molecule itself. The data set can be described thus: cryo-EM structure; single-particle cryo-EM of the purified enzyme without ligands; 25 mM Tris-HCl pH 8.0, 200 mM NaCl, 5 mM DTT; WT at 9.0 mg/mL, R142I at 3.2 mg/mL; grids made at 4 °C; C2 symmetry imposed.

B1: wild-type (WT) human asparagine synthetase (ASNS) (enzyme, UniProt P08243 1-561, looked up)
chain: MCGIWALFGSDDCLSVQCLSAMKIAHRGPDAFRFENVNGYTNCCFGFHRLAVVDPLFGMQPIRVKKYPYLWLCYNGEIYNHKKMQQHFEFEYQTKVDGEIILHLYDKGGIEQTICMLDGVFAFVLLDTANKKVFLGRDTYGVRPLFKAMTEDGFLAVCSEAKGLVTLKHSATPFLKVEPFLPGHYEVLDLKPNGKVASVEMVKYHHCRDVPLHALYDNVEKLFPGFEIETVKNNLRILFNNAVKKRLMTDRRIGCLLSGGLDSSLVAATLLKQLKEAQVQYPLQTFAIGMEDSPDLLAARKVADHIGSEHYEVLFNSEEGIQALDEVIFSLETYDITTVRASVGMYLISKYIRKNTDSVVIFSGEGSDELTQGYIYFHKAPSPEKAEEESERLLRELYLFDVLRADRTTAAHGLELRVPFLDHRFSSYYLSLPPEMRIPKNGIEKHLLRETFEDSNLIPKEILWRPKEAFSDGITSVKNSWFKILQEYVEHQVDDAMMANAAQKFPFNTPKTKEGYYYRQVFERHYPGRADWLSHYWMPKWINATDPSARTLTHYKSAVKA
notes: human asparagine synthetase (glutamine-hydrolysing), unmodified recombinant enzyme; the N-terminal residue is Cys-1 (initiator Met removed) and the C-terminal tail ends at residue 560; Cys-1 is C2 in P08243); No tag is stated for the WT enzyme; the variants were purified on Ni-NTA, so the WT construct may also carry a His tag; Residues 201-220, 465-475 and 539-560 have no density in the EM map …
One may read the stoichiometry N as the number of molecules, sites or subunits per partner or assembly. Regarding B1, the “stoichiometry N” value came to 2.

B2: R142I ASNS variant (human asparagine synthetase with Arg-142 replaced by isoleucine) (enzyme, UniProt P08243 1-561, looked up)
chain: MCGIWALFGSDDCLSVQCLSAMKIAHRGPDAFRFENVNGYTNCCFGFHRLAVVDPLFGMQPIRVKKYPYLWLCYNGEIYNHKKMQQHFEFEYQTKVDGEIILHLYDKGGIEQTICMLDGVFAFVLLDTANKKVFLGRDTYGVIPLFKAMTEDGFLAVCSEAKGLVTLKHSATPFLKVEPFLPGHYEVLDLKPNGKVASVEMVKYHHCRDVPLHALYDNVEKLFPGFEIETVKNNLRILFNNAVKKRLMTDRRIGCLLSGGLDSSLVAATLLKQLKEAQVQYPLQTFAIGMEDSPDLLAARKVADHIGSEHYEVLFNSEEGIQALDEVIFSLETYDITTVRASVGMYLISKYIRKNTDSVVIFSGEGSDELTQGYIYFHKAPSPEKAEEESERLLRELYLFDVLRADRTTAAHGLELRVPFLDHRFSSYYLSLPPEMRIPKNGIEKHLLRETFEDSNLIPKEILWRPKEAFSDGITSVKNSWFKILQEYVEHQVDDAMMANAAQKFPFNTPKTKEGYYYRQVFERHYPGRADWLSHYWMPKWINATDPSARTLTHYKSAVKA
notes: human asparagine synthetase with R142I; only elution from Ni-NTA with imidazole is described; also called R142I variant; ASNS R142I; source: Sf9 cells (baculovirus), purified (Ni-NTA, PD-10 buffer exchange)
Regarding B2, the “stoichiometry N” value worked out at 2.
